Consider five molecules from patent US20260250421A1 (BIOCYTOGEN PHARMACEUTICALS BEIJING, published 2026).

Experiment [1] concerns the target T1, His-tagged human TROP2 protein (human, UniProt P09758 27-274).
T1 construct: Bought protein; also called hTROP2-His; ACRO Biosystems Cat# TR2-H5223; not shown: His tag
T1 sequence (looked up): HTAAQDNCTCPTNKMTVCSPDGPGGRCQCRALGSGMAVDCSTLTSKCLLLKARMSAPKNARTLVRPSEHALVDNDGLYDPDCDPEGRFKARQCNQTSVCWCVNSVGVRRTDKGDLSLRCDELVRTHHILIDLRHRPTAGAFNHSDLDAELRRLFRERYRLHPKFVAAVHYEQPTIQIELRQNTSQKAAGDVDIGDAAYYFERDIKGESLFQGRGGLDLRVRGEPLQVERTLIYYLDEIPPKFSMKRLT
The experiment in a line: SPR Biacore 8K, Ab on Protein A chip. As to the method:
(§1) The affinity of the anti-TROP2 antibodies to His-tagged human TROP2 protein (hTROP2-His, ACRO Biosystems Inc., Cat #: TR2-H5223), His-tagged cynomolgus monkey TROP2 protein (cTROP2-His, ACRO Biosystems Inc., Cat #: TR2-R52H3) and His-tagged dog TROP2 protein (dTROP2-His, ACRO Biosystems Inc., Cat #: TR2-C52H4) were measured by surface plasmon resonance (SPR) using Biacore™ (Biacore, INC, Piscataway N.J.) 8K biosensor equipped with pre-immobilized Protein A sensor chips.
(§2) Purified anti-TROP2 antibodies were diluted to 1 μg/mL and then injected into the Biacore™ 8K biosensor at 10 μL/min for about 50 seconds to achieve a desired protein density (e.g., about 350 response units (RU)). The His-tagged TROP2 protein at a concentration of 200 nM was then injected at 30 μL/min for 180 seconds. Dissociation was monitored for 400 seconds. The chip was regenerated after the last injection of each titration with glycine (pH 2.0, 30 μL/min for 30 seconds).

In experiment [2] the target is T2, His-tagged monkey TROP2 protein (cynomolgus monkey; Rhesus …, UniProt A0A5F8AGB8 27-274).
T2 construct: also called cTROP2-His; ACRO Biosystems Cat# TR2-R52H3
T2 sequence: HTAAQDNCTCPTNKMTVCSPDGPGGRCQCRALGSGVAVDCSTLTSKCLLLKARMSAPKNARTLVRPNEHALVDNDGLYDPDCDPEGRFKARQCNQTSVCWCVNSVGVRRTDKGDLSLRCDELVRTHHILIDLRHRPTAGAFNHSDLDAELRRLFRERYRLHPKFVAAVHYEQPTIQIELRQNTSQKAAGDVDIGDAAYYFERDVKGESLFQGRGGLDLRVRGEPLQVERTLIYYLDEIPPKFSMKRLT
Kind of experiment: SPR Biacore 8K, Ab on Protein A chip. As for the experimental part: as §1, §2
A general note: SPR reads the build-up and loss of mass on a sensor chip optically.

Experiment [3] has as its target T3, TROP2 on NCI-H1975 and NUGC-4 tumor cells (UniProt P09758 27-323, limits assumed).
T3 construct: whole, on cells; species of the lines is not worded there; also called TROP2 on cells
T3 sequence (looked up): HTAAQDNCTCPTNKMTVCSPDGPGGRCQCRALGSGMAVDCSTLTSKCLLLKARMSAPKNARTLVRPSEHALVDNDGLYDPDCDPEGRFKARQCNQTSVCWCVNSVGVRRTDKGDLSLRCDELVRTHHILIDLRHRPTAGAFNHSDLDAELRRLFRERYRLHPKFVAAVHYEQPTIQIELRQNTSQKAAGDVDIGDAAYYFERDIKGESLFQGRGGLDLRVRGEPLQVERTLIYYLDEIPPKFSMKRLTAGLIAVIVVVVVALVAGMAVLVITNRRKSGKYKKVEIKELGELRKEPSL
Kind of experiment: flow cytometry on NUGC-4 cells (only TROP2 expression), anti-hIgG-Fc Alexa Fluor 647 secondary antibody, MFI [B]. As for the experimental part:
(§3) This experiment was performed to test the binding activities of the anti-PTK7/TROP2 bispecific antibodies to different tumor cell lines. NCI-H1975 cells or NUGC-4 cells were transferred to a 96-well plate at a density of 5×10⁴ cells/well respectively. The sample antibody was added to the 96-well plate, and incubated at 4° C. for 30 min.
Background: A flow cytometer gives signals particle by particle.

The target of experiment [4] is T3, TROP2 on NCI-H1975 and NUGC-4 tumor …. Kind of experiment: flow cytometry on NCI-H1975 cells (PTK7/TROP2 co-expression), anti-hIgG-Fc Alexa Fluor 647 secondary antibody, MFI [A]. As for the experimental part: as §3

B1: 18E9 (antibody, V domains shown)
VH: QLQLQQSGPGLLKPSETLSLTCTVSGGSISSSYYFWGWIRQPPGKGLEWIGAIYYIGNTHYNPSLKSRVTISIDTSKNQFSLNLNSVTAADTAIYYCARYEDTWNWFDPWGQGTLVTVSS
VL: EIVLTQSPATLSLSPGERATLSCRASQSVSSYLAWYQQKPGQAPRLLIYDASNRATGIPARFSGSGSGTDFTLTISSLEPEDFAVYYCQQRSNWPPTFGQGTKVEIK
notes: also called anti-TROP2 antibody 18E9
In general, Kd refers to a measure of binding affinity in units of concentration. One may read the koff as the first-order rate constant of dissociation. For orientation: kon means a measure of how fast the partners come together. As to B1, in experiment [1], the affinity, expressed as Kd, was 1.46 nM; the koff stood at 0.00117 s⁻¹; the kon amounted to 798000 M⁻¹ s⁻¹. Further, in experiment [2], the Kd came out at 1.2 nM, the off-rate (koff) worked out at 0.00132 s⁻¹ and the on-rate (kon) stood at 1.1e+06 M⁻¹ s⁻¹.

B2: DS-1062 analog (antibody, V domains shown)
VH: QVQLVQSGAEVKKPGASVKVSCKASGYTFTTAGMQWVRQAPGQGLEWMGWINTHSGVPKYAEDFKGRVTISADTSTSTAYLQLSSLKSEDTAVYYCARSGFGSSYWYFDVWGQGTLVTVSS
VL: DIQMTQSPSSLSASVGDRVTITCKASQDVSTAVAWYQQKPGKAPKLLIYSASYRYTGVPSRFSGSGSGTDFTLTISSLQPEDFAVYYCQQHYITPLTFGQGTKLEIK
notes: The sheet names it 'DS-1062 analog' with no LALA or SI suffix, so it is kept apart from m18 (DS-1062 analog-LALA); also called antibody portion of DS-1062; copies: 2 + 2
The EC50 (read off the curve) is the midpoint of the concentration-response curve. As for B2, the “EC50 (read off the curve)” value in experiment [3] is roughly 0.3 µg/mL; in experiment [4] it was roughly 0.4 µg/mL.

B3: Sacituzumab analog (antibody, V domains shown)
VH: QVQLQQSGSELKKPGASVKVSCKASGYTFTNYGMNWVKQAPGQGLKWMGWINTYTGEPTYTDDFKGRFAFSLDTSVSTAYLQISSLKADDTAVYFCARGGFGSSYWYFDVWGQGSLVTVSS
VL: DIQLTQSPSSLSASVGDRVSITCKASQDVSIAVAWYQQKPGKAPKLLIYSASYRYTGVPDRFSGSGSGTDFTLTISSLQPEDFAVYYCQQHYITPLTFGAGTKVEIKR
notes: also called antibody portion of Sacituzumab govitecan
For B3, the “EC50 (read off the curve)” value in experiment [3] was roughly 0.6 µg/mL. Further, in experiment [1], the dissociation constant (Kd) is 1.24 nM, the off-rate constant (koff) came out at 0.000255 s⁻¹ and the on-rate (kon) was determined as 205000 M⁻¹ s⁻¹. For the same molecule, in experiment [2], binding was characterised by a dissociation constant (Kd) of 1.11 nM, the dissociation rate constant (koff) is 0.000245 s⁻¹ and the kon came to 221000 M⁻¹ s⁻¹. For the same molecule, the half-maximal effective concentration (EC50 (read off the curve)) in experiment [4] was roughly 0.7 µg/mL.

B4: DS-1062 analog-LALA (antibody, V domains shown)
VH: QVQLVQSGAEVKKPGASVKVSCKASGYTFTTAGMQWVRQAPGQGLEWMGWINTHSGVPKYAEDFKGRVTISADTSTSTAYLQLSSLKSEDTAVYYCARSGFGSSYWYFDVWGQGTLVTVSS
VL: DIQMTQSPSSLSASVGDRVTITCKASQDVSTAVAWYQQKPGKAPKLLIYSASYRYTGVPSRFSGSGSGTDFTLTISSLQPEDFAVYYCQQHYITPLTFGQGTKLEIKR
notes: also called DS-1062 analog with LALA mutations
In experiment [1], B4 gave an equilibrium dissociation constant (Kd) of 37 nM, an off-rate constant (koff) of 0.00411 s⁻¹ and an on-rate (kon) of 111000 M⁻¹ s⁻¹. In experiment [2], this molecule yielded a Kd of 32.5 nM, a koff of 0.00409 s⁻¹ and an on-rate (kon) of 126000 M⁻¹ s⁻¹.

B5: 18F12 (antibody, V domains shown)
VH: QLQLKESGPGLVKPSETLSLTCTVSGGSISYYYWSWIRQPPGMGLEWIGNIYYSGDTNYNPSLRSRVTISIDMSKNQFSLRLNSVTAADTAVYYCARYDMFKWNYEAFDVWGQGTMVTVSS
VL: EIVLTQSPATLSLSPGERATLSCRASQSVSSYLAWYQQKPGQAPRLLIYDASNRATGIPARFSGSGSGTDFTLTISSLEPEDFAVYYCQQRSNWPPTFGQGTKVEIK
notes: also called anti-TROP2 antibody 18F12
As to B5, in experiment [1], binding was characterised by a dissociation constant (Kd) of 7.16 nM, the koff stood at 0.00511 s⁻¹ and the kon amounted to 713000 M⁻¹ s⁻¹. In experiment [2], this molecule displayed a Kd of 5.41 nM, a koff of 0.00435 s⁻¹ and an on-rate (kon) of 803000 M⁻¹ s⁻¹.
